B1: recombinant H2A.13 (natural protein, Arabidopsis, UniProt Q9LHQ5 1-132, looked up)
chain: MAGRGKTLGSGVAKKSTSRSSKAGLQFPVGRIARFLKNGKYATRVGAGAPVYLAAVLEYLAAEVLELAGNAARDNKKTRIVPRHIQLAVRNDEELSKLLGDVTIANGGVMPNIHSLLLPKKAGASKPSADED
notes: histone H2A.13 of Arabidopsis; source: E. coli BL21 (DE3), purified (Ni-NTA under denaturing conditions, thrombin, SP sepharose)
B2: recombinant H2A.W.7 (natural protein, Arabidopsis, UniProt Q94F49 1-150, looked up)
chain: MESSQATTKPTRGAGGRKGGDRKKSVSKSVKAGLQFPVGRIARYLKKGRYALRYGSGAPVYLAAVLEYLAAEVLELAGNAARDNKKNRINPRHLCLAIRNDEELGRLLHGVTIASGGVLPNINPVLLPKKSTASSSQAEKASATKSPKKA
notes: histone H2A.W.7 of Arabidopsis; source: E. coli BL21 (DE3), purified (Ni-NTA under denaturing conditions, thrombin, SP sepharose)
B3: recombinant H2A.W.6 (natural protein, Arabidopsis, UniProt Q9FJE8 1-150, looked up)
chain: MESTGKVKKAFGGRKPPGAPKTKSVSKSMKAGLQFPVGRITRFLKKGRYAQRLGGGAPVYMAAVLEYLAAEVLELAGNAARDNKKSRIIPRHLLLAIRNDEELGKLLSGVTIAHGGVLPNINSVLLPKKSATKPAEEKATKSPVKSPKKA
notes: histone H2A.W.6 of Arabidopsis; source: E. coli BL21 (DE3), purified (Ni-NTA under denaturing conditions, thrombin, SP sepharose)

target: T1, recombinant H2B.9 (Arabidopsis, UniProt O23629 1-150); assay: SEC; freeze-dried histones mixed at a 1:1 molar ratio in 7 M guanidine hydrochloride, step-wise dialysed from 2 M to 0.1 M NaCl refolding buffer, Superdex200 in 0.1 M NaCl refolding buffer; peak fractions on SDS-PAGE; conditions: both partners purified
T1 construct: histone H2B.9 (HTB9) of Arabidopsis; source: E. coli BL21 (DE3), purified (Ni-NTA under denaturing conditions, thrombin, SP sepharose)
T1 sequence (O23629 whole entry): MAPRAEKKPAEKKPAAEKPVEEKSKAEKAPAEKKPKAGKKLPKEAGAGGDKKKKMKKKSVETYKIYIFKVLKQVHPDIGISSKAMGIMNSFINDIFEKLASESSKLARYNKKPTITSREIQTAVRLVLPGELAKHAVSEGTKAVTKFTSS

Binding result, binds:
B1, B2, B3

Source: paper PMC8208582, “Crosstalk between H2A variant-specific modifications impacts vital cell functions” (PLoS Genetics, 2021)
